Source: the nanobody polyreactivity screen of Harvey et al. (2022)

Assay: yeast display, Sf9 membrane polyspecificity reagent, FACS + sequencing; frameworks hold sequencing errors
How it was run: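 A synthetic nanobody library was expressed on Saccharomyces cerevisiae BJ5465 by galactose induction for 36–48 hours. The library was stained for 1 hour at 4 °C with 10% biotinylated, detergent-solubilized Sf9 membrane reagent and enriched with streptavidin microbeads before FACS. Low and high (top ~1%) gates were set on anti-HA fluorescence for expression and streptavidin fluorescence for reagent binding, and each polyreactivity label reflects the gate of origin.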

Sequence | polyreactivity (PSR sort gate)
QVQLVESGGGLVQAGGSLRLSCAASALTFQAYTMGWYRQAPGKERELDAAISRNGGRTYYADSVKGRFTISRDNAKNTVYLQMNSLKPEDTAVYYCAAVHFVVSPGRGDDYWGQCTQVTVSS | high polyreactivity
QVQLVESGGGLVQAGGSLRLSCAASGRIFNAYAMGWYRQAPGKERELVATITGSGGRTHYADSVKGRFTISRDNAKNTVYLQMNSLKPEDTAVYYCAATAQYYHYHLAKYDYWGQGTQVTVSS | low polyreactivity
QVQLVESGGGLVQAGGSLRLSCAASGLIFRQYAMGWYRPAPGKERELVAAITQTGGRTYYADSVKGRFTISRDNAKNTVYLQMNSLKPEDTAVYYCNALTFAAGDHYDYWGQGTQVTVSS | low polyreactivity
QVKLVESGGGLVQAGGSLRLSCAASGFIIGGYGMGWYRQAPGKERELVAVITASGGSTYYADSVKWLFTISRDNAKNTVYLQMNSLKPEDTGVYYCAARVGRYGYSQYYYWGQGTQVTVSS | high polyreactivity
QVQLVESGGGLVQAGGSLRLSSAASGLTFLGYTMGWYRQAPGKARELVAAINYSGGSTYYADSVKGSFTISRDNAKNTVYLQMNSLKPEDPAVYYCAARRAVSGGVRMYYWGQGTQVTVSS | high polyreactivity
QVQLVESGGGLVQAGVSLRLSCAASGRIFPTNAMGWYRQAPGKERELVAAIPVSGGSTYYADSVKGRFTISRDNAKNTVYLQMNSLKPEDTAVYYCAVDDRASVGSRLDHWGQGTQVTVSS | low polyreactivity
QVQLVESGGGLVQAGGSLRLSCAASGSIFDTYVMGWYRQAPGKERELVAVISYSGTRTSYADSVKGRFTISRDNAKNTVYLQMNSLKPEDTAVYYCAARVTYYRTYRGRQYGYWGQGTQVTVSS | high polyreactivity
QVQLVESGGGLVQAGGSLRLSCAACGFTFWDYAMGWYSQAPGKERELVAAISDNDGSTDYADSVKGRFTISRDNAKNTVYLQMNSLKPEDSAVYYCNAEIELPSKEGDYWGQGTQVTVSS | low polyreactivity
QVQLVESGGGLVQAGGSLRLSCAASGRTFRLYAMGWYRQAPGKERELVASISRSVGSTYYADSVKGRFTISRDNAKNTVYLQMNSLKPVDTAVYYCAARSYIPGGWYGAYYYWGQGTQVTVSS | high polyreactivity
QVQLVESGGGLVQAGGSLRLSCAASGRTFRRNAMGWYRQAPGKERELVAAISFSAGRTYYADSVKGRFTISRDNAKNTVYLQMNSLKPEDTAVYYCNALRQDTGHYPYDYWGQGTQVTVSS | low polyreactivity
QVQLVESGGGLVQAGGSLRLSCAASGSIFRFNVMGWYRQAPGKERELVAAITRGDSTNYADSVKGRFTISRDNAKNTVYLQMNSLKPEDTAVYYCAAGYYYYLRDHDYWGQGTQVTVSS | low polyreactivity
QVQLVESGGGLVQAGGSLRLSCAASGRTFWTNAMGWYRQAPGKERELVAAITKSGGRTYYADSVKGRFTISRDNAKNTVYLQMNRLKPEDTAVYYCAAYSQGEGGYWGQGTQVTVSS | high polyreactivity
QVQLVESGGGLVQAGGSLRLSCAASGRTFSYAMGWYRQAPGKERELVAAITSGGSTYYADSVKGRFTISRDNAKNTVYLQMNSLKPEDTAVYYCAKLLGNYARYDYWGHGTQVTVSS | high polyreactivity
QVQLVESGGGLVQAGGSLRLSCAASGRTFSPYAMGWYRQAPGKERDLVAAINGGGGTTYYADSVKGRFTISRDNAKNTVYLQMNSLKPEDTAVYYCAAGYNYTSYADLDYWGQGTQVTVSS | low polyreactivity
QVQLVESGGGLVQAGGSLRLSCAASGGTFFVYAMGWSRPAPGKERELVAAISGSGGRTYYADSVKGRFTISRDNAKNTVYLQMNSLTPEDTAVYYCNATYLTRSTRLSDFDYWGQGTQVTVSS | high polyreactivity
QVQLVESGGGLVQAGGSLRLSCAASGFIFHRNAMGWYRPAPGKERELVASITKRGGNTYYADSVKGRFTISRDNAKNTVYLQMNSLKPEDTAVYYCATQLWGWDWKRDYWGQGTQVTVSS | high polyreactivity
QVQLVESGGGLVQAGGSLRLSSAASGFTFDCNTMGWYRQAPGKERELVALISSTGGRTYYADSVQGRFSISRDNAKNTVYLQMNSLKPEDTAGSYCNKRRRNPVGYDYWGLGTQVTVSS | high polyreactivity
